Results on 1 molecule are retold here after publication PMC2836974 (Molecular Biology of the Cell, 2010).

For experiment [1], the target named is RasG, GST fusion, loaded with mGppNHp (Dictyostelium discoideum, UniProt P15064 1-189). The experiment in a line: guanine nucleotide dissociation inhibition.
Experiment [2] concerns the target T1, C-terminal-truncated Rap1 (amino acids 1-169), GST fusion, loaded with mGppNHp (Dictyostelium discoideum, UniProt P18613 1-169).
T1 sequence: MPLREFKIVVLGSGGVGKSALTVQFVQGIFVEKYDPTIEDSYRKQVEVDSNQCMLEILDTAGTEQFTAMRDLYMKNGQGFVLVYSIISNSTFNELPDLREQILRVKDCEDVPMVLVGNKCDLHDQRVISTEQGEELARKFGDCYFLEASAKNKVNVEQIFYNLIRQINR
The experiment in a line: guanine nucleotide dissociation inhibition.

Sequence of RasG, GST fusion, loaded with mGppNHp (P15064 whole entry, the tested form may be a part): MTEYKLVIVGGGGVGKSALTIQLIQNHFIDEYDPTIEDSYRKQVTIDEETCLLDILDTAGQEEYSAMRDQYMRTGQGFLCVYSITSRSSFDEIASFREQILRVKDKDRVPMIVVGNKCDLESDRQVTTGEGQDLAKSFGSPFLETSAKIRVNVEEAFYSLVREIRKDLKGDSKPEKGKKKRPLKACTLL

B1: PI3K2-RBD (RBD domain of PI3K2, amino acids 757-918) (domain or fragment)
chain: GHIQAELEIFELIGTSFTRVLDQGQEVVSFRRDFAQFRLSNFTSTRNDLSQMIYVSSEPLPLTIPNKITIMVLLPGDGKIIKRVDCCPNSSVGDVKKEIFKKFAMIDRVHTQGKTQDDFVLKVTGFREYILCIHELGNLTSRQRFYPTGSGGDFSLMDYDYI
Broadly, the Kd is the free concentration of one partner at which half of the binding sites on the other are occupied at equilibrium, for simple one-to-one binding. High values mean lower affinity, low ones higher affinity. For B1, the Kd in experiment [1] turned out to be 24 µM; in experiment [2], 40 µM.
